In paper PMC6608630, “The structural characterization of a glucosylglycerate hydrolase provides insights into the molecular mechanism of mycobacterial recovery from nitrogen starvation” (IUCrJ, 2019):

Legend:
[1] = substrate: O=C(O)[C@@H](CO)O[C@H]1O[C@H](CO)[C@@H](O)[C@H](O)[C@@H]1O; assay: released mannose by K-MANGL assay kit; allosteric sigmoidal fit; format: biochemical, Mycolicibacterium hassiacum; details: 20 mM sodium phosphate pH 6.0, 100 mM KCl, 5 mM MgCl2, 50 °C, Hill h 1.29, tag-less enzyme, rough estimation, incomplete kinetic curve
Source text: released mannose by K-MANGL assay kit; allosteric sigmoidal fit on MhGgH (M. hassiacum glucosylglycerate hydrolase)

[2] = substrate: O=C(O)[C@@H](CO)O[C@H]1O[C@H](CO)[C@@H](O)[C@H](O)[C@H]1O; assay: released glucose by glucose oxidase assay; allosteric sigmoidal fit; format: biochemical, Mycolicibacterium hassiacum; details: 20 mM sodium phosphate pH 6.0, 100 mM KCl, 5 mM MgCl2, 50 °C, Hill h 1.77, tag-less enzyme
Source text: released glucose by glucose oxidase assay; allosteric sigmoidal fit on MhGgH (M. hassiacum glucosylglycerate hydrolase)

B1: MhGgH (M. hassiacum glucosylglycerate hydrolase) (Mycolicibacterium hassiacum DSM 44199) (protein)
chain: MPHDPSFTPTQLAARAAYLLRGNDLGTMTTAAPLLYPHMWSWDAAFVAIGLAPLSVERAVVELDTLLSAQWRNGMIPHIVFANGVDGYFPGPARWATATLADNAPRNRLTSGITQPPVHAIAVQRILEHARTRGRSTRAVAEAFLDRRWGDLMRWHRWLAECRDRNERGRITLYHGWESGMDNSPRWDSAYANVVPGKLPEYQRADNVIITDPSQRPSDGEYDRYLWLLEEMKAVRYDDERLPSVMSFQVEDVFFSAIFSVACQVLAEIGEDYKRPHADVKDLYLWAERFRAGVVETTDQRTGAARDFDVLAEKWLVTETAAQFAPLLCGGLPHDRERALLKLLEGPRFCGHPDLKYGLIPSTSPVSRDFRPREYWRGPVWPVLTWLFSWCFARRGWAERARLLRQEGLRQASDGSFAEYYEPFTGEPLGSMQQSWTAAAVLDWLG
notes: full-length from pETM11-MhGgH, N-terminal His tag removed with TEV protease leaving Gly-Ala dipeptide; E. coli BL21(DE3); homotetramer; last residue Gly446
[1]
  K0.5: 84.18 ± 30.27 mM
  Vmax: 3.09 µmol/min/mg
[2]
  K0.5: 9.36 ± 0.69 mM
  Vmax: 3.6 µmol/min/mg
